Assays:
[1] = target: T1, S100A9 C-term (C) peptide (human); experiment: dot blot on PVDF
T1 construct: also called C-terminal peptide
T1 peptide: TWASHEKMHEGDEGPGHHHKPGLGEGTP
Procedure: FIG. 7 illustrates that 6B4 recognizes the C-terminal peptide of S100A9. Recombinant S100A8 and S100A9 (1 μg), PBS1×, N-terminal (N), Hinge (H) and C-terminal (C) peptides (10 and 50 μg) were put onto PVDF membrane to perform dot blot analysis using the mAb 6B4.
A dot blot was first performed to verify the ability of the mAb 6B4 to recognize these regions of S100A9. Briefly, 1 μg of recombinant S100A9 or S100A8 (negative control), and 10 and 50 μg of S100A9 peptides were deposited on PVDF membrane. The dried membrane was then blocked with TBS/0.1% Tween/milk 5% 30 min at room temperature under gentle agitation and labelled with 1 μg/ml of 6B4 mAb for 1 hr at RT. The membrane was extensively washed with TBS/0.1% Tween, then labelled with goat anti-mouse ( 1/20 000) in blocking buffer for 1 hr at RT under gentle agitation. The membrane was then extensively washed and visualized by enhanced chemiluminescence (ECL) as described by the manufacturer (PerkinElmer).

S100A9 peptide C7 = target: T2, S100A9 peptide C7 (human); experiment: direct ELISA on coated peptides
T2 construct: also called 10 last amino acid of the C-terminal region of S100A9
T2 peptide: HKPGLGEGTP

S100A9 peptide C7a = target: T3, S100A9 peptide C7a (human); experiment: direct ELISA on coated peptides
T3 peptide: PGLGEGTP

Measured: binding result

B1: mouse monoclonal antibody 6B4 (antibody, IgG1, V domains shown)
VH: QVQLQQPGSELVRPGASVKLSCKASGYTFTTYWIHWVRQRPGQGLEWIGNIYPGGDSSNYDEKVKSRATLTVDTSSSTAYMQLSSLTSEDSAVYYCSRWGIWGQGTLVTVSA
VL: ENVLTQSPAIMSASPGEKVTMTCSARSSVSYVHWYQQKSNTSPKLWIYDTSKLASGVPGRFSGSGSGNSYSLTISSMEAEDVATYYCFQGSGYPLTFGAGTKLELK
notes: also called mAb 6B4; 6B4 mAb
binds: [1] | S100A9 peptide C7 | S100A9 peptide C7a

Reference: patent US20210277101A1 (UNIVERSIT LAVAL, published 2021)
